{"source": "the supplement of paper PMC11246515", "test": "total protein half-life in vivo (active degradation + dilution); higher = more stable protein", "key": {"[1]": {"conditions": "E. coli NCM3722 delta-clpP delta-lon delta-hslV, growth: N-lim chemostat, doubling time 6 h"}, "[2]": {"conditions": "E. coli NCM3722 delta-clpP, growth: N-lim chemostat, doubling time 6 h"}, "[3]": {"conditions": "E. coli NCM3722 delta-hslV, growth: N-lim chemostat, doubling time 6 h"}, "[4]": {"conditions": "E. coli NCM3722 delta-lon, growth: N-lim chemostat, doubling time 6 h"}, "[5]": {"conditions": "E. coli NCM3722 delta-smpB, growth: N-lim chemostat, doubling time 6 h"}, "[6]": {"conditions": "wild type E. coli NCM3722, growth: C-lim chemostat, doubling time 3 h"}, "[7]": {"conditions": "wild type E. coli NCM3722, growth: C-lim chemostat, doubling time 6 h"}, "[8]": {"conditions": "wild type E. coli NCM3722, growth: C-lim chemostat, doubling time 12 h"}, "[9]": {"conditions": "wild type E. coli NCM3722, growth: N-lim chemostat, doubling time 6 h"}, "[10]": {"conditions": "wild type E. coli NCM3722, growth: N-lim chemostat, doubling time 12 h"}, "[11]": {"conditions": "wild type E. coli NCM3722, growth: P-lim chemostat, doubling time 6 h"}, "[12]": {"conditions": "wild type E. coli NCM3722, growth: P-lim chemostat, doubling time 12 h"}}, "note": "± gives the standard deviation of the averaged measurements.", "data": [{"sequence": "MDSLNLNKHISGQFNAELESIRTQVMTMGGMVEQQLSDAITAMHNQDSDLAKRVIEGDKNVNMMEVAIDEACVRIIAKRQPTASDLRLVMVISKTIAELERIGDVADKICRTALEKFSQQHQPLLVSLESLGRHTIQMLHDVLDAFARMDIDEAVRIYREDKKVDQEYEGIVRQLMTYMMEDSRTIPSVLTALFCARSIERIGDRCQNICEFIFYYVKGQDFRHVGGDELDKLLAGKDSDK [P0A9K7]", "values": [{"measurement": "total protein half-life in vivo", "setting": "[1]", "result": "4.61 ± 0.4", "unit": "h"}, {"measurement": "total protein half-life in vivo", "setting": "[2]", "result": "4.64 ± 0.5", "unit": "h"}, {"measurement": "total protein half-life in vivo", "setting": "[3]", "result": "4.2 ± 0.34", "unit": "h"}, {"measurement": "total protein half-life in vivo", "setting": "[4]", "result": "4.81 ± 0.26", "unit": "h"}, {"measurement": "total protein half-life in vivo", "setting": "[5]", "result": "4.01 ± 0.1", "unit": "h"}, {"measurement": "total protein half-life in vivo", "setting": "[6]", "result": "2.88 ± 0.12", "unit": "h"}, {"measurement": "total protein half-life in vivo", "setting": "[7]", "result": "5.04 ± 0.29", "unit": "h"}, {"measurement": "total protein half-life in vivo", "setting": "[8]", "result": "9.47 ± 0.65", "unit": "h"}, {"measurement": "total protein half-life in vivo", "setting": "[9]", "result": "4.09 ± 0.23", "unit": "h"}, {"measurement": "total protein half-life in vivo", "setting": "[10]", "result": "6.41 ± 0.26", "unit": "h"}, {"measurement": "total protein half-life in vivo", "setting": "[11]", "result": "5.17 ± 0.13", "unit": "h"}, {"measurement": "total protein half-life in vivo", "setting": "[12]", "result": "10.8 ± 0.029", "unit": "h"}]}, {"sequence": "MSDVLRPYRDLFPQIGQRVMIDDSSVVIGDVRLADDVGIWPLVVIRGDVHYVQIGARTNIQDGSMLHVTHKSSYNPDGNPLTIGEDVTVGHKVMLHGCTIGNRVLVGMGSILLDGAIVEDDVMIGAGSLVPQNKRLESGYLYLGSPVKQIRPLSDEEKAGLRYSANNYVKWKDEYLDQGNQTQP [P0A9W9]", "values": [{"measurement": "total protein half-life in vivo", "setting": "[2]", "result": "5.73 ± 1.7", "unit": "h"}, {"measurement": "total protein half-life in vivo", "setting": "[3]", "result": "5.34 ± 1.1", "unit": "h"}, {"measurement": "total protein half-life in vivo", "setting": "[4]", "result": "5.32 ± 0.6", "unit": "h"}, {"measurement": "total protein half-life in vivo", "setting": "[5]", "result": "4.72 ± 0.17", "unit": "h"}, {"measurement": "total protein half-life in vivo", "setting": "[6]", "result": "3.04 ± 0.14", "unit": "h"}, {"measurement": "total protein half-life in vivo", "setting": "[8]", "result": "10 ± 2", "unit": "h"}, {"measurement": "total protein half-life in vivo", "setting": "[9]", "result": "5.36 ± 0.53", "unit": "h"}, {"measurement": "total protein half-life in vivo", "setting": "[10]", "result": "8.69 ± 0.58", "unit": "h"}, {"measurement": "total protein half-life in vivo", "setting": "[11]", "result": "6.25 ± 0.13", "unit": "h"}, {"measurement": "total protein half-life in vivo", "setting": "[12]", "result": "14.3 ± 1.3", "unit": "h"}]}, {"sequence": "MVTFHTNHGDIVIKTFDDKAPETVKNFLDYCREGFYNNTIFHRVINGFMIQGGGFEPGMKQKATKEPIKNEANNGLKNTRGTLAMARTQAPHSATAQFFINVVDNDFLNFSGESLQGWGYCVFAEVVDGMDVVDKIKGVATGRSGMHQDVPKEDVIIESVTVSE", "values": [{"measurement": "total protein half-life in vivo", "setting": "[1]", "result": "4.83 ± 0.65", "unit": "h"}, {"measurement": "total protein half-life in vivo", "setting": "[2]", "result": 4.38, "unit": "h"}, {"measurement": "total protein half-life in vivo", "setting": "[3]", "result": "4.92 ± 0.92", "unit": "h"}, {"measurement": "total protein half-life in vivo", "setting": "[4]", "result": "4.83 ± 0.27", "unit": "h"}, {"measurement": "total protein half-life in vivo", "setting": "[5]", "result": "4.11 ± 0.046", "unit": "h"}, {"measurement": "total protein half-life in vivo", "setting": "[6]", "result": "3.3 ± 0.97", "unit": "h"}, {"measurement": "total protein half-life in vivo", "setting": "[7]", "result": "6.03 ± 0.56", "unit": "h"}, {"measurement": "total protein half-life in vivo", "setting": "[8]", "result": "9.92 ± 0.88", "unit": "h"}, {"measurement": "total protein half-life in vivo", "setting": "[9]", "result": "4.507 ± 0.039", "unit": "h"}, {"measurement": "total protein half-life in vivo", "setting": "[10]", "result": "7.49 ± 1.2", "unit": "h"}, {"measurement": "total protein half-life in vivo", "setting": "[12]", "result": "11.1 ± 0.3", "unit": "h"}]}, {"sequence": "MNMMRIFYIGLSGVGMMFSSMASGNDAGGLQSPACGVVCDPYICVNSDGISPELTRKYLGEKAAENLQSLQGYDPSEFTFANGVFCDVKEKLCRDDRYFGVDGKRSGKINQTTTKMLFMCRE", "values": [{"measurement": "total protein half-life in vivo", "setting": "[1]", "result": "5.09 ± 1.6", "unit": "h"}, {"measurement": "total protein half-life in vivo", "setting": "[2]", "result": 5.4, "unit": "h"}, {"measurement": "total protein half-life in vivo", "setting": "[3]", "result": "6.01 ± 0.28", "unit": "h"}, {"measurement": "total protein half-life in vivo", "setting": "[4]", "result": 5.64, "unit": "h"}, {"measurement": "total protein half-life in vivo", "setting": "[6]", "result": "2.85 ± 0.51", "unit": "h"}, {"measurement": "total protein half-life in vivo", "setting": "[7]", "result": "5.52 ± 0.4", "unit": "h"}, {"measurement": "total protein half-life in vivo", "setting": "[9]", "result": "4.42 ± 1.2", "unit": "h"}, {"measurement": "total protein half-life in vivo", "setting": "[10]", "result": "> 16", "unit": "h"}, {"measurement": "total protein half-life in vivo", "setting": "[11]", "result": "4.78 ± 0.93", "unit": "h"}]}, {"sequence": "MNILQFNVRLAEGGAAGVALDLHQRALQQGLASHFVYGYGKGGKESVSHQNYPQVIKHTPRMTAMANIALFRLFNRDLFGNFNELYRTITRTAGPVVLHFHVLHSYWLNLKSVVRFCEKVKNHKPDVTLVWTLHDHWSVTGRCAFTDGCEGWKTGCQKCPTLNNYPPVKIDRAHQLVAGKRQLFREMLALGCQFISPSQHVADAFNSLYGPGRCRIINNGIDMATEAILADLPPVRETQGKPKIAVVAHDLRYDGKTNQQLVREMMALGDKIELHTFGKFSPFTAGNVVNHGFETDKRKLMSALNQMDALVFSSRVDNYPLILCEALSIGVPVIATHSDAAREVLQKSGGKTVSEEEVLQLVQLSKPEIAQAIFGTTLAEFSQRSRAAYSGQQMLEEYVNFYQNL", "values": [{"measurement": "total protein half-life in vivo", "setting": "[4]", "result": "5.88 ± 0.64", "unit": "h"}, {"measurement": "total protein half-life in vivo", "setting": "[5]", "result": "5.05 ± 0.76", "unit": "h"}]}, {"sequence": "MFKKSVLFATLLSGVMAFSTNADDKIILKHISVSSVSASPTVLEDTIADIARKYNASSWKVTSMRIDNNSTATAVLYK", "values": [{"measurement": "total protein half-life in vivo", "setting": "[3]", "result": "5.17 ± 1.6", "unit": "h"}, {"measurement": "total protein half-life in vivo", "setting": "[5]", "result": "6.02 ± 0.31", "unit": "h"}, {"measurement": "total protein half-life in vivo", "setting": "[7]", "result": "3.54 ± 0.083", "unit": "h"}, {"measurement": "total protein half-life in vivo", "setting": "[8]", "result": "6.51 ± 5.1", "unit": "h"}, {"measurement": "total protein half-life in vivo", "setting": "[9]", "result": 3.93, "unit": "h"}, {"measurement": "total protein half-life in vivo", "setting": "[10]", "result": "9.35 ± 3.8", "unit": "h"}, {"measurement": "total protein half-life in vivo", "setting": "[11]", "result": 5.33, "unit": "h"}, {"measurement": "total protein half-life in vivo", "setting": "[12]", "result": 11.5, "unit": "h"}]}, {"sequence": "MNRFIMANSQQCLGCHACEIACVMAHNDEQHVLSQHHFHPRITVIKHQQQRSAVTCHHCEDAPCARSCPNGAISHVDDSIQVNQQKCIGCKSCVVACPFGTMQIVLTPVAAGKVKATAHKCDLCAGRENGPACVENCPADALQLVTDVALSGMAKSRRLRTARQEHQPWHASTAAQEMPVMSKVEQMQATPARGEPDKLAIEARKTGFDEIYLPFRADQAQREASRCLKCGEHSVCEWTCPLHNHIPQWIELVKAGNIDAAVELSHQTNTLPEITGRVCPQDRLCEGACTIRDEHGAVTIGNIERYISDQALAKGWRPDLSHVTKVDKRVAIIGAGPAGLACADVLTRNGVGVTVYDRHPEIGGLLTFGIPSFKLDKSLLARRREIFSAMGIHFELNCEVGKDVSLDSLLEQYDAVFVGVGTYRSMKAGLPNEDAPGVYDALPFLIANTKQVMGLEELPEEPFINTAGLNVVVLGGGDTAMDCVRTALRHGASNVTCAYRRDEANMPGSKKEVKNAREEGANFEFNVQPVALELNEQGHVCGIRFLRTRLGEPDAQGRRRPVPVEGSEFVMPADAVIMAFGFNPHGMPWLESHGVTVDKWGRIIADVESQYRYQTTNPKIFAGGDAVRGADLVVTAMAEGRHAAQGIIDWLGVKSVKSH", "values": [{"measurement": "total protein half-life in vivo", "setting": "[1]", "result": 5.28, "unit": "h"}, {"measurement": "total protein half-life in vivo", "setting": "[8]", "result": 1.34, "unit": "h"}]}, {"sequence": "MAQITTTDANEFSSSAEFIPMRGFSNCHLQTMLPRLFRRQVKFTPYWQRLELPDGDFVDLAWSENPAQAQHKPRLVVFHGLEGSLNSPYAHGLVEAAQKRGWLGVVMHFRGCSGEPNRMHRIYHSGETEDASWFLRWLQREFGHAPTAAVGYSLGGNMLACLLAKEGNDLPVDAAVIVSAPFMLEACSYHMEKGFSRVYQRYLLNLLKANAARKLAAYPGTLPINLAQLKSVRRIREFDDLITARIHGYADAIDYYRQCSAMPMLNRIAKPTLIIHAKDDPFMDHQVIPKPESLPPQVEYQLTEHGGHVGFIGGTLLHPQMWLESRIPDWLTTYLEAKSC", "values": [{"measurement": "total protein half-life in vivo", "setting": "[1]", "result": 3.69, "unit": "h"}, {"measurement": "total protein half-life in vivo", "setting": "[8]", "result": 3.84, "unit": "h"}, {"measurement": "total protein half-life in vivo", "setting": "[11]", "result": 2.34, "unit": "h"}, {"measurement": "total protein half-life in vivo", "setting": "[12]", "result": 4.3, "unit": "h"}]}]}
